Experimental findings from IntAct's records for PubMed 16452984 are described below.

First the molecules themselves.
B1: Rap guanine nucleotide exchange factor 4 (Mus musculus), Q9EQZ6-3 (parent)
chain: MVAAHAAHSQSSAEWIACLDKRPLERSSEDVDIIFTRLKGVKAFEKFHPNLLRQICLCGYYENLEKGITLFRQGDIGTNWYAVLAGSLDVKVSETSSHQDAVTICTLGIGTAFGESILDNTPRHATIVTRESSELLRIEQEDFKALWEKYRQYMAGLLAPPYGVMETGSNNDRIPDKENVPSEKILRAGKILRIAILSRAPHMIRDRKYHLKTYRQCCVGTELVDWMIQQTSCVHSRTQAVGMWQVLLEDGVLNHVDQERHFQDKYLFYRFLDDEREDAPLPTEEEKKECDEELQDTMLLLSQMGPDAHMRMILRKPPGQRTVDDLEIIYDELLHIKALSHLSTTVKRELAGVLIFESHAKGGTVLFNQGEEGTSWYIILKGSVNVVIYGKGVVCTLHEGDDFGKLALVNDAPRAASIVLREDNCHFLRVDKEDFNRILRDVEANTVRLKEHDQDVLVLEKVPAGNRAANQGNSQPQQKYTVMSGTPEKILEHFLETIRLEPSLNEATDSVLNDFVMMHCVFMPNTQLCPALVAHYHAQPSQGTEQERMDYALNNKRRVIRLVLQWAAMYGDLLQEDDVAMAFLEEFYVSVSDDARMMAAFKEQLPELEKIVKQISEDAKAPQKKHKVLLQQFNTGDERAQKRQPIRGSDEVLFKVYCIDHTYTTIRVPVAASVKEVISAVADKLGSGEGLIIVKMNSGGEKVVLKSNDVSVFTTLTINGRLFACPREQFDSLTPLPEQEGPTTGTVGTFELMSSKDLAYQMTTYDWELFNCVHELELIYHTFGRHNFKKTTANLDLFLRRFNEIQFWVVTEVCLCSQLSKRVQLLKKFIKIAAHCKEYKNLNSFFAIVMGLSNVAVSRLALTWEKLPSKFKKFYAEFESLMDPSRNHRAYRLTAAKLEPPLIPFMPLLIKDMTFTHEGNKTFIDNLVNFEKMRMIANTARTVRYYRSQPFNPDAAQANKNHQDVRSYVRQLNVIDNQRTLSQMSHRLEPRRP

The variants in this test derive from B1. The note with it: with rap1b_human RAP1B.
For the variant R886A, the “effect of a mutation on the interaction” value is “decreasing interaction strength”.

For H452A, the “effect of a mutation on the interaction” value was “decreasing interaction strength”.
